Data on three molecules can be found in paper PMC8626312, “In vitro assembly complex formation of TRAIP CC and RAP 80 zinc finger motif revealed by our study” (Saudi Journal of Biological Sciences, 2021).

B1: TRAIP CC (66–164 aa) (domain or fragment, human, UniProt Q9BWF2 66-164, looked up)
chain: LAQEEENVLDAEFLKNELDNVRAQLSQKDKEKRDSQVIIDTLRDTLEERNATVVSLQQALGKAEMLCSTLKKQMKYLEQQQDETKQAQEEARRLRSKMK
notes: The abstract prints 64–166 for this construct; Calculated mass with the C-terminal His tag is 12325 Da; also called TRAIP coiled-coil domain; TRAIP-1; source: E. coli BL21 (DE3), purified (Ni-NTA, SEC); not shown: His6, C-terminal, kept

Series [1] concerns the molecule itself. Kind of series: SEC-MALS; TRAIP CC alone on a size exclusion column HR 10/30, 20 mM Tris-HCl pH 8, 150 mM NaCl; three-angle light scattering and refractive index detectors (Wyatt mini-DAWN TREOS), ASTRA. In general terms: Size exclusion chromatography separates by hydrodynamic size, large species first.
Series [2] concerns the molecule itself. In words: SEC; each protein alone on Superdex 200 HR 10/30, 20 mM Tris-HCl pH 8.0, 150 mM NaCl; oligomeric state from the elution volume.
In the series “TRAIP CC (66–164 aa)” the target is B1. In words: SEC; purified proteins mixed in a molar ratio of approximately 1:1, pre-incubated 30 min at 4 °C, Superdex 200 HR 10/30, 20 mM Tris-HCl pH 8.0, 150 mM NaCl; fractions on SDS-PAGE. The settings on record: both partners purified.

For orientation: stoichiometry N means a count of units in the complex or per binding partner. For B1, the “stoichiometry N” value in series [1] worked out at 3.

B2: TRAIP RINGCC (1-157aa) (domain or fragment, human, UniProt Q9BWF2 1-157, looked up)
chain: MPIRALCTICSDFFDHSRDVAAIHCGHTFHLQCLIQWFETAPSRTCPQCRIQVGKRTIINKLFFDLAQEEENVLDAEFLKNELDNVRAQLSQKDKEKRDSQVIIDTLRDTLEERNATVVSLQQALGKAEMLCSTLKKQMKYLEQQQDETKQAQEEAR
notes: the methods name pET24a with a C-terminal His6; One sentence of the results prints 1–517; also called TRAIP-5; TRAIP RINGCC (1–517); source: E. coli BL21 (DE3), purified (Ni-NTA, SEC)
Consider B2, for which the binding result in series [2] is given as “binds”.

B3: RAP80 zinc finger (490–584 aa) (domain or fragment, human, UniProt Q96RL1 490-584, looked up)
chain: KEVAISTFSSSNQVSCPLCDQCFPPTKIERHAMYCNGLMEEDTVLTRRQKEAKTKSDSGTAAQTSLDIDKNEKCYLCKSLVPFREYQCHVDSCLQ
notes: RAP80 (receptor-associated protein 80), human, 719 aa, zinc finger motif, residues 490(K)-584(Q), 95 aa; the methods name pET24a with a C-terminal His6; also called RAP80 Zn finger motif; RAP80-1; source: E. coli BL21 (DE3), purified (Ni-NTA, SEC)
Regarding B3, the binding result with TRAIP CC (66–164 aa) is recorded as “binds”. In series [2], the “stoichiometry N” value came to 3.
